Measured values published in patent EP1637166A2.

How the values were obtained:
[1] = target: mouse CCR5 (mCCR5) cloned from B6 mice, transiently expressed on HeLa-MAGI cells (mouse) (UniProt P51682); experiment: 0.5 nM 125I-labelled human RANTES on mCCR5-transfected HeLa-MAGI cells, no sera
[2] = target: mouse CCR5 (mCCR5) cloned from B6 mice, transiently expressed on HeLa-MAGI cells (mouse) (UniProt P51682); experiment: 0.5 nM 125I-labelled human RANTES on mCCR5-transfected HeLa-MAGI cells in a 1000-fold excess (500 nM) of cold human RANTES

Chain of UniProt P51682 (P51682 whole entry): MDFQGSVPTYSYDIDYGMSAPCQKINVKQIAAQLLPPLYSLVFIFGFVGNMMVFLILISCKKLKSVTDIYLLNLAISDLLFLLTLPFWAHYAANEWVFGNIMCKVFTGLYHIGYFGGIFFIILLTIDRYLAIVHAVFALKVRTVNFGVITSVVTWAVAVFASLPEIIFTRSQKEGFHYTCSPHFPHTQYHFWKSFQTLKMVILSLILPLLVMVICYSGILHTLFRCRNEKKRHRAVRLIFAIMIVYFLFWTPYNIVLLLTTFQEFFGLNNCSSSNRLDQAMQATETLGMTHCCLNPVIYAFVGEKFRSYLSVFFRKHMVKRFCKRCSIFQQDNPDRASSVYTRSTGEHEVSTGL

125I-labelled human RANTES (Amersham) (from UniProt P13501 24-91) (ligand)
maximally bound iodinated RANTES [1]: 2550 cpm | non-specific binding of iodinated RANTES [2]: 1300 cpm
